Measurements taken from article doi:10.1101/2023.01.21.525003.

Key:
Test in all cases: FRET or BRET
[1] = biological target: Gluc-LHCGRv4 (Gaussia luciferase fused to the N-terminus of the luteinizing hormone/chorionic gonadotropin receptor) (human) (UniProt P22888)
[2] = biological target: Gluc-LHCGR^Cys131Arg (human) (UniProt P22888)
[3] = biological target: Gluc-LHCGR^Glu354Lys (human) (UniProt P22888)
[4] = biological target: Gluc-LHCGR^Ile152Thr (human) (UniProt P22888)
Gluc-LHCGR^Ile152Thr (human), sequence (P22888 27-699 I152T): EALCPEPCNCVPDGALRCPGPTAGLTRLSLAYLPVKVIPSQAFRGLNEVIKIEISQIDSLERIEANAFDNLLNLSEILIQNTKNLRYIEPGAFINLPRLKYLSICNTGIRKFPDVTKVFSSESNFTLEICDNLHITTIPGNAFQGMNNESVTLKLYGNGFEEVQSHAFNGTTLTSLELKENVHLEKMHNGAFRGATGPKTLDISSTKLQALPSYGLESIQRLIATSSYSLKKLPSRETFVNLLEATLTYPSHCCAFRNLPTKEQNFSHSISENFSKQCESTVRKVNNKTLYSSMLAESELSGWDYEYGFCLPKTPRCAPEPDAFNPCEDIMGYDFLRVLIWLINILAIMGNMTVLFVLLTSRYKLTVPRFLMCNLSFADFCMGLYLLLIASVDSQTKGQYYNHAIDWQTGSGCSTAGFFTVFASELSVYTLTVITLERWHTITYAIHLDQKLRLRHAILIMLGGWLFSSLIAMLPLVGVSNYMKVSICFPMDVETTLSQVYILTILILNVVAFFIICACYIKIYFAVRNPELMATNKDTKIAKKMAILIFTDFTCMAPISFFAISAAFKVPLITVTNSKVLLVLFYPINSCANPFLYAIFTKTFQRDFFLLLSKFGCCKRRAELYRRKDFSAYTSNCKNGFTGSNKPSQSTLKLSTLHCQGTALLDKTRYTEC

Gluc-LHCGRv4 (Gaussia luciferase fused to the N-terminus of the luteinizing hormone/chorionic gonadotropin receptor) (human), sequence (P22888 27-699): as the sequence (P22888 27-699 I152T) above, with T126I counted along it
Gluc-LHCGR^Cys131Arg (human), sequence (P22888 27-699 C131R): as the sequence (P22888 27-699 I152T) above, with C105R, T126I counted along it
Gluc-LHCGR^Glu354Lys (human), sequence (P22888 27-699 E354K): as the sequence (P22888 27-699 I152T) above, with T126I, E328K counted along it

| acceptor:donor (BRET) ratio, fold lower than equimolar yhCG^WT-eGFP [1] [fold lower] | acceptor:donor (BRET) ratio, fold lower than Gluc-LHCGR^WT [2] [fold lower] | acceptor:donor (BRET) ratio, fold lower than Gluc-LHCGR^WT [3] [fold lower] | acceptor:donor (BRET) ratio, fold lower than Gluc-LHCGR^WT [4] [fold lower] | Substance |
| --- | --- | --- | --- | --- |
| 4.6 | – | – | – | yhCG^Glu80Ala-eGFP (yoked human chorionic gonadotropin with CGA Glu80Ala, fused to eGFP) (ligand) |
| – | 5.5 | 2.6 | 5.1 | yhCG^WT-eGFP (yoked human chorionic gonadotropin fused to eGFP) (ligand) |
